Experimental data as given in the supplement of paper PMC10899765.

test system: MCF10A; assay: 5+ nucleoli phenotype percent effect (relative to siNT 0% and siKIF11 100%); higher = more cells with five or more nucleoli; conditions: 20 nM; 72 h
Method: (§1)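 After 72 h, cells were fixed and stained with Hoechst and anti-fibrillarin, and nucleoli per nucleus were counted with CellProfiler. Values are plate-adjusted percent effect for the one-nucleolus and 5+ nucleoli phenotypes, normalised to siNT (0%) and to the positive controls siNOL11 or siKIF11 (100%), as the mean of biological triplicates. Percent viability is the nuclei count relative to siNT.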

Row | Sequence | 5+ nucleoli phenotype percent effect [%]
1 | UCCGGUUCUCAGGGCUCCACC [hsa-miR-671-3p] | -33.5
2 | UGGGAGCCAUGAGGGUCUGUGC [hsa-miR-6827-5p] | -1.65
3 | AGGAGGAAUUGGUGCUGGUCUU [hsa-miR-766-5p] | -33
4 | CUCUGAUCGCCCUCUCAGCUC [hsa-miR-3192-3p] | -48.8
5 | CUAAGAAGUUGACUGAAG [hsa-miR-3653] | -37.5
6 | GCCUGCUGGGGUGGAACCUGGU [hsa-miR-370] | -25.5
7 | GCAGGCACAGACAGCCCUGGC [hsa-miR-4269] | -29
8 | CAGUGCAAUAGUAUUGUCAAAGC [hsa-miR-301a-3p] | 43.8
9 | AUAGCAGCAUGAACCUGUCUCA [hsa-miR-4524a-5p] | -12.6
10 | UUCUGCUGCCGGCCAAGGC [hsa-miR-6071] | -25.7
11 | UGAAGCGCCUGUGCUCUGCCGAGA [hsa-miR-7706] | 12.3
12 | CCAGUGGGGCUGCUGUUAUCUG [hsa-miR-194-3p] | 10.5
13 | UUGGACUUUUUCAGAUUUGGGGAU [hsa-miR-5009-5p] | -5.29
14 | GGAUGGAGGAGGGGUCU [hsa-miR-4534] | 31
15 | UGUGUCACUCGAUGACCACUGU [hsa-miR-597] | -3.83
16 | UGCCCUGCAUGGUGUCCCCACAG [hsa-miR-6799-3p] | -1.27
17 | ACCUGAAUUACCAAAAGCUUU [hsa-miR-3140-5p] | 26.3
18 | UAGCACCAUUUGAAAUCGGUUA [hsa-miR-29c-3p] | 38
19 | UCCUCCUCUACCUCAUCCCAGU [hsa-miR-5193] | -13.6
20 | AUGAAGUGCACUCAUGAUAUGU [hsa-miR-3616-5p] | -38.4

Row | Sequence | 5+ nucleoli phenotype percent effect [%]
21 | UCCCUGCCCCCAUACUCCCAG [hsa-miR-6752-3p] | -28.9
22 | CUCACUCUCAGUCCCUCCCU [hsa-miR-6794-3p] | 27.6
23 | CAAAGGCCACAUUCUCCUGUGCAC [hsa-miR-6768-3p] | -27.1
24 | AAGACGGGAGGAAAGAAGGGAG [hsa-miR-483-5p] | -31.8
25 | CAUGGGAGUUCGGGGUGGUUGC [hsa-miR-6871-5p] | 5.7
26 | UUGGGCUGGGCUGGGUUGGG [hsa-miR-1587] | -22.5
27 | GGACCCACCCGGCCGGGAAUA [hsa-miR-1180-5p] | 38.4
28 | AAAAGUACUUGCGGAUUUUGCU [hsa-miR-548k] | 36.4
29 | UCUGACAUCAGUGAUUCUCCUG [hsa-miR-6719-3p] | 20.2
30 | AUUCUAAUUUCUCCACGUCUUU [hsa-miR-576-5p] | 28.2
31 | UAUGGAAAGACUUUGCCACUCU [hsa-miR-3688-3p] | 57.1
32 | UGAGGGCUCCAGGUGACGGUGG [hsa-miR-4721] | -20.6
33 | AUCAGGGCUUGUGGAAUGGGAAG [hsa-miR-3127-5p] | -23.4
34 | CUCCUGAGCCAUUCUGAGCCUC [hsa-miR-1200] | -30.8
35 | CAAAUGAGCUUAAUUUCCUUUU [hsa-miR-1252-3p] | 37.8
36 | AAGUCCUGCUUCUGUUGCAG [hsa-miR-6838-3p] | -28.6
37 | GUGGGUUGGGGCGGGCUCUG [hsa-miR-3940-5p] | -4.07
38 | UCCUAAAUCUGAAAGUCCAAAA [hsa-miR-5009-3p] | 46.2
39 | CAGGAUCCACAGAGCUAGUCCA [hsa-miR-4661-3p] | -16
40 | UCGAGGAGCUCACAGUCUAGU [hsa-miR-151a-5p] | 9.84

Row | Sequence | 5+ nucleoli phenotype percent effect [%]
41 | GGUCUAGGCCCGGUGAGAGACUC [hsa-miR-8078] | 10
42 | UAUGUGACCUCGGAUGAAUCA [hsa-miR-4501] | -23.6
43 | UUCUGAGCUGAGGACAG [hsa-miR-4303] | -10.7
44 | CAAAGUCCUUCCUAUUUUUCCC [hsa-miR-6507-3p] | -15.5
45 | GGGGAGCGAGGGGCGGGGC [hsa-miR-6090] | 36.1
46 | AUGUGGGCUCAGGCUCA [hsa-miR-4296] | -35.4
47 | CUGGAGUCUAGGAUUCCA [hsa-miR-4309] | -25.6
48 | UUGGACGGUAAGGUUAAGCAA [hsa-miR-4804-5p] | -12.4
49 | CAGCGGAGCCUGGAGAGAAGG [hsa-miR-7846-3p] | -18.4
50 | AAUCUGAGAAGGCGCACAAGGU [hsa-miR-3200-5p] | -28.4
51 | UGGUGGUUUACAAAGUAAUUCA [hsa-miR-876-3p] | -33.4
52 | GGCGGCGGCGGAGGCGGGGG [hsa-miR-3960] | -17.5
53 | ACUCCAUUUGUUUUGAUGAUGGA [hsa-miR-136-5p] | 34.2
54 | GAACUCACCCUCUGCUCCCAG [hsa-miR-6750-3p] | 29.7
55 | AGGGGUGGUGUUGGGACAGCUCCGU [hsa-miR-608] | -9.99
56 | UUCUUUGUUUUUAAUUCACAG [hsa-miR-6844] | 8.6
57 | UAGCCUUCAGAUCUUGGUGUUUU [hsa-miR-3614-3p] | -23.5
58 | ACGUUUGAAUGCUGUACAAGGC [hsa-miR-5707] | 56.2
59 | CCGGGGCAGAUUGGUGUAGGGUG [hsa-miR-5090] | 24.7

test system: MCF10A; assay: one-nucleolus phenotype percent effect (relative to siNT 0% and siNOL11 100%); higher = more cells with one nucleolus (ribosome biogenesis inhibition); conditions: 20 nM; 72 h
Method: as §1

Row | Sequence | one-nucleolus phenotype percent effect [%]
60 | UCCGGUUCUCAGGGCUCCACC [hsa-miR-671-3p] | 54.3
61 | UGGGAGCCAUGAGGGUCUGUGC [hsa-miR-6827-5p] | 26.3
62 | AGGAGGAAUUGGUGCUGGUCUU [hsa-miR-766-5p] | 33.8
63 | CUCUGAUCGCCCUCUCAGCUC [hsa-miR-3192-3p] | 57.6
64 | CUAAGAAGUUGACUGAAG [hsa-miR-3653] | 49.1
65 | GCCUGCUGGGGUGGAACCUGGU [hsa-miR-370] | 12.5
66 | GCAGGCACAGACAGCCCUGGC [hsa-miR-4269] | 43.1
67 | CAGUGCAAUAGUAUUGUCAAAGC [hsa-miR-301a-3p] | -17.2
68 | AUAGCAGCAUGAACCUGUCUCA [hsa-miR-4524a-5p] | 21.6
69 | UUCUGCUGCCGGCCAAGGC [hsa-miR-6071] | 22.1
70 | UGAAGCGCCUGUGCUCUGCCGAGA [hsa-miR-7706] | -18.1
71 | CCAGUGGGGCUGCUGUUAUCUG [hsa-miR-194-3p] | -11.8
72 | UUGGACUUUUUCAGAUUUGGGGAU [hsa-miR-5009-5p] | 19.8
73 | GGAUGGAGGAGGGGUCU [hsa-miR-4534] | -5.6
74 | UGUGUCACUCGAUGACCACUGU [hsa-miR-597] | 13.9
75 | UGCCCUGCAUGGUGUCCCCACAG [hsa-miR-6799-3p] | 6.43
76 | ACCUGAAUUACCAAAAGCUUU [hsa-miR-3140-5p] | -18.7
77 | UAGCACCAUUUGAAAUCGGUUA [hsa-miR-29c-3p] | -21
78 | UCCUCCUCUACCUCAUCCCAGU [hsa-miR-5193] | 9.86
79 | AUGAAGUGCACUCAUGAUAUGU [hsa-miR-3616-5p] | 32.7
80 | UCCCUGCCCCCAUACUCCCAG [hsa-miR-6752-3p] | 14.5
81 | CUCACUCUCAGUCCCUCCCU [hsa-miR-6794-3p] | -18.1
82 | CAAAGGCCACAUUCUCCUGUGCAC [hsa-miR-6768-3p] | 28
83 | AAGACGGGAGGAAAGAAGGGAG [hsa-miR-483-5p] | 19.1
84 | CAUGGGAGUUCGGGGUGGUUGC [hsa-miR-6871-5p] | 14.1
85 | UUGGGCUGGGCUGGGUUGGG [hsa-miR-1587] | 29.2
86 | GGACCCACCCGGCCGGGAAUA [hsa-miR-1180-5p] | -33.8
87 | AAAAGUACUUGCGGAUUUUGCU [hsa-miR-548k] | -15.1
88 | UCUGACAUCAGUGAUUCUCCUG [hsa-miR-6719-3p] | -5.44
